Assay results published in patent US20230032737A1 (University of Pennsylvania, published 2023).

Target: T1, purified human factor D (from human plasma) (human, UniProt P00746 26-253)
T1 construct: mature; Also used here for the native factor D of normal human serum in the functional assays; also called human fD; fD
Experiment: SPR (Biacore-2000), purified human factor D amine-coupled to CM4 chip
Method: FIG. 8 depicts the results of antigen binding affinity measurements for 1F10-5 mAb using Biacore. Purified human factor D was coupled onto CM4 chip using the amine coupling method. Biacore analysis was performed on a Biacore-2000 instrument. The chip was regenerated between each binding using 50 mM NaOH.

T1 sequence (P00746 26-253): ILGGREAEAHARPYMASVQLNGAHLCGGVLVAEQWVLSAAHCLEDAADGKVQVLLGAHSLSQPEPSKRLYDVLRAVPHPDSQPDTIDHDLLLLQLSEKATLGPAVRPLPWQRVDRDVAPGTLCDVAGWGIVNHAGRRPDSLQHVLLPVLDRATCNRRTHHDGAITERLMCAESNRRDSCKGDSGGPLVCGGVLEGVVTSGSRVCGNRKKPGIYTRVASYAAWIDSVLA

B1: mAb 1F10-5 (murine anti-human factor D monoclonal antibody) (antibody, V domains shown)
VH: QIQLVQSGPELKKPGETVKISCKASGYTFTNFEMNWVKQAPGQGLNWMGCINTYTGDPIYADDFRGRFAFSLETSASTAYLQINNLKNEDMATYFCSREGGGDYWGQGTTLTVSS
VL: SIVMTQTPKFLLVSAGDRVTITCKASQSVTNDVAWYQQKPGQSPRLLIYHASNRYTGVPERFTGSGYGTDFTFTINTVQAEDLAVYFCQQDYSSPRTFGGGTKLEIKR
notes: Mouse hybridoma antibody; also called 1F10-mAb; IF10-5
A Kd of 0.15 nM was found for B1 in this work.
